Data taken from the RNAGym collection of RNA variant scans (doi:10.1073/pnas.2313332121).
Variants at the floor of the assay were thinned out.

B1: TPR 5TU (parent)
chain: GGAUCUUCUCGAUCUAACAAAAAAGACAAAUCUGCCACAAAGCUUGAGAGCAUCUUCGGAUGCAGAGGCGGCAGCCUUCGGUGGCGCGAUAGCGCCAACGUUCUCAACUAUGACACGCAAAACGCGUGCUCCGUUGAAUGGAGUUUAUCAUG

Variants of: B1
Test: polymerase ribozyme fitness, log enrichment relative to wild type (log ratio); higher = more active; in vitro selection for triplet polymerase activity
Summary of the method: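 Only genotypes with ≥10 input reads and ≥1 read per output were kept after Illumina sequencing of input and output libraries. These libraries were PCR-built, transcribed mutants of each subunit of a heterodimeric triplet polymerase ribozyme, each put through one triplicate in vitro selection round with frozen incubation at −7 °C, gel excision of extended constructs, streptavidin-bead capture and RT-PCR. Fitness is a logarithmic ratio of genotype enrichment to wild-type enrichment, from inverse-variance-weighted replicate averages, with the logarithm in base 2.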

| Variant | polymerase ribozyme fitness (log ratio) |
| --- | --- |
| A19C G59A U144C | 1.14 |
| C76A U82G U146A | -0.356 |
| C5A A20C C96U | -0.294 |
| G42A G50A A66U G88A C96G U139C | ≤ -4.2 |
| C76U C99G | -0.789 |
| G59A C75G A122U C129A G143U | -3.5 |
| C85A C87U U101G G136U | ≤ -4.2 |
| A12C A37C U53C G86U A97G A113U | ≤ -4.2 |
| U9A U13A A29G C96A C132A | ≤ -4.2 |
| G50A C76A C96U | -3.13 |
| G48U U55G C118G C131U A137C U145A | ≤ -4.2 |
| C99U U104G | -1.84 |
| A24C C27A U56A G58A C72U A73U C87U | ≤ -4.2 |
| A47C U61C C96U | -3.35 |
| C99G U146G | -1.32 |
| A12G G59A A73G A91G | -2.71 |
| A30G A49C C93G | ≤ -4.2 |
| C103A A150G | -4.09 |
| G62A C75U | -0.822 |
| C43G U55A C96A A98C A121U | ≤ -4.2 |
| C38U C85G | -3.44 |
| C35G A37C A52G G86U A97G | -4.2 |
| A21G A23G G128C | ≤ -4.2 |
| C85U A147G | -1.25 |

| Variant | polymerase ribozyme fitness (log ratio) |
| --- | --- |
| A40C G84A G94A C131U U139A | -4.09 |
| C14G G88U U102A | ≤ -4.2 |
| C14A U15G A26U G86U G92U A107U U109A C116A | ≤ -4.2 |
| C27U U55A C99G A138G | ≤ -4.2 |
| A89G C95U A142C | -2.81 |
| A20G A21C G94A U146G | -0.812 |
| G83A A107G G136A G140A | ≤ -4.2 |
| C87U C131U | 1.46 |
| C35U C54U U55A C116G | 0.41 |
| U15C C54A C87U G94A A98U C125A | -3.98 |
| C27U C72U G88A G94A G152A | -4.19 |
| G68C G83C | ≤ -4.2 |
| A26U G92A | -3.86 |
| C35U C87G | -3.84 |
| A22C C131G | -3.49 |
| A39U U55A G59U G117A A121U | -1.11 |
| A66G C87U | -3.68 |
| C51A C85U C103G G124A U145G A150G | ≤ -4.2 |
| A29C A52C C54U U82C U90A G136A | ≤ -4.2 |
| U53C C118U C129G G141A | ≤ -4.2 |
| C54G C76A C93G C123U | ≤ -4.2 |
| G92A C96A C103G C105U A107G A119G C125U C149A | ≤ -4.2 |
| C10G A89G | ≤ -4.2 |
| G83U A97G A110U G117U | -3.7 |

| Variant | polymerase ribozyme fitness (log ratio) |
| --- | --- |
| C57G C103G | -2.16 |
| A22C A60G C87U | 0.179 |
| U55G G62A | -2.48 |
| G59U A120G | -0.485 |
| A16C C32G U56G C63G | ≤ -4.2 |
| C57A C96A | -0.383 |
| A121U | -0.0614 |
| C85A A137C | -4.13 |
| U6G A17U A60G C93A A98U | -1.75 |
| A20U U45A G124A | -3.98 |
| A29U C54G U56G A60G | ≤ -4.2 |
| C27U G81U C85U | -2.15 |
| U7A U9C A20G U53G C87U A98U | -3.99 |
| U45A C114U | -4.01 |
| A20C C85U | -1.04 |
| A26G A30C G59A G74A G84U | -3.99 |
| C85U U127G | -3.46 |
| U6C A24G U31A A52C C87U U90G G92U C93A | ≤ -4.2 |
| C10U A28U A52G U56A A73C C93U U145C C149G | ≤ -4.2 |
| U55A G59A C75U G92U C99G C129G U139G | ≤ -4.2 |
| A91G G140A | -4.12 |
| A3C U6G A22C A29C C85G C93U C108G G143A | ≤ -4.2 |
| C38G C95A A150U | -0.802 |
| C18A G58A G86U A119U | -2.06 |

| Variant | polymerase ribozyme fitness (log ratio) |
| --- | --- |
| C75G C87A | -3.89 |
| U55A U146A | -0.393 |
| C105A U135C | -2.39 |
| A37C G83A | -0.102 |
| C51A G136A | -0.23 |
| U6A A20G U56A G88U U102A C103G C132A U146G | ≤ -4.2 |
| C14G G25C | ≤ -4.2 |
| U53G U61A | -3.21 |
| G50A C54U U56A G70A C87G U90A C95G U109G C114G G141U | ≤ -4.2 |
| C75U G92U | -2.38 |
| C51A G92U | -1.06 |
| A23G C85U | -2.38 |
| A16U A41U G59A C116G C129U A150G | ≤ -4.2 |
| C54A C95U A106C | -2.19 |
| C93G A142G | -3.81 |
| G59U A64G A89G A107C | ≤ -4.2 |
| G62A C103U | -1.66 |
| A16C A24U G46C C105G C108G | ≤ -4.2 |
| A29U G126A | ≤ -4.2 |
| A23C A26U U53A C85A G136U | ≤ -4.2 |
| U33A G50A U53A C85G C96G A97U C114G U139A | ≤ -4.2 |
| G84A | -0.547 |
| A37G A41C U53C C85U U104C G128C C149G | ≤ -4.2 |
| A40U C79G G88U A107G C149A | ≤ -4.2 |

| Variant | polymerase ribozyme fitness (log ratio) |
| --- | --- |
| A52C A142G | -1.98 |
| U31G G84A A89G | -0.747 |
| G46C U101G A107U A137C | -4.12 |
| G83C A147U | 0.501 |
| U53A C95G C96G U146A | -3.91 |
| C43G A49C G68C C72U A97U | ≤ -4.2 |
| C8G A20C | -3.59 |
| G50C U109G A113G A120C U130G | ≤ -4.2 |
| A40C U45A C54U | ≤ -4.2 |
| A17C A24U C114A | -3.86 |
| G11C A30U C95A C108G U148A | ≤ -4.2 |
| U109G A110C | ≤ -4.2 |
| A60G A89C U104G C108G | ≤ -4.2 |
| C125G A142C | -4.01 |
| C36U G46A A64G G80C | ≤ -4.2 |
| U127C U139C U151G | ≤ -4.2 |
| C51U G94U | -1.45 |
| C95U C132A | -2.32 |
| U56A G59U C63G C87U | 1.72 |
| U135A | -0.939 |
| G42A G88A G124A C125U C129A | ≤ -4.2 |
| A115C G124U U144G | -3.11 |
| A52C G58C C85A | -3.96 |
| A3G A17U A47U U55G | -0.403 |

| Variant | polymerase ribozyme fitness (log ratio) |
| --- | --- |
| A28G G84U | -4.02 |
| C8U C99A | -3.69 |
| G84C G126C | -1.54 |
| A52C G83C | -2.29 |
| C36G U56A A98G | -3.71 |
| A30U C69G C79A C87G G126A G140C | ≤ -4.2 |
| C5U U55G C79G C87A A97U A106C | ≤ -4.2 |
| U15A C38U C54U C95G G141A | -1.16 |
| A40C A49G U55A G80A C85U G140C | ≤ -4.2 |
| C38U C51U C76A C79A A97U G100A C103G A106G A120G | ≤ -4.2 |
| A30G C75G C93U A121G | ≤ -4.2 |
| G50A A98U G126A | -1.26 |
| U13G A39C G62A A107U U139A A142U | ≤ -4.2 |
| C32G A41C C75U | ≤ -4.2 |
| C114U U151C | ≤ -4.2 |
| G67U C87G U130A | ≤ -4.2 |
| G126A G133C U146C | -2.5 |
| A19G U55A G83A A97G G124A A142C | ≤ -4.2 |
| C5A C27U U55G G83A G92U U148A | ≤ -4.2 |
| A3U A49G | -0.232 |
| G50C U56A G59C | -3.03 |
| A47U A49G A98G U101A | ≤ -4.2 |
| A12U C14A G42A C96G U111G A122U | ≤ -4.2 |
| U53G G68A | ≤ -4.2 |

| Variant | polymerase ribozyme fitness (log ratio) |
| --- | --- |
| G46C A49U U56A G86A C87A C103G A147U | ≤ -4.2 |
| A21G G84C A113U | -4.09 |
| C57A U61G U78G G88A U148A | ≤ -4.2 |
| U4A C54A C95A A138C | ≤ -4.2 |
| C54G A89C C123G C131A | ≤ -4.2 |
| C87A G126A | -4.04 |
| G59U A60U | -0.703 |
| G71U C85G U134G U139G | ≤ -4.2 |
| C69U C96A | -1.12 |
| C57G A113G | -3.44 |
| G94U U151A | ≤ -4.2 |
| A28C A39C C54G U61A C99U | ≤ -4.2 |
| U53G A73G C85U G126U | -2.37 |
| A21U A37C A49G A52U A91C | ≤ -4.2 |
| A12U G71A C75U G84A C85U G117A | ≤ -4.2 |
| A22U A73G U82A | 1.72 |
| U56G C85A | -2.05 |
| G140A G141A | -3.15 |
| U9G C43A C54A C75G C93G U146A | ≤ -4.2 |
| A19G A52U U53A U82C C87G | ≤ -4.2 |
| G42C A47G G88C | ≤ -4.2 |
| G81A C87U | -1.73 |
| A40G A97G | -1.8 |
